{
  "source": "paper doi:10.1101/197558",
  "about": "(bioRxiv, 2017)",
  "binders": {"B1": {"name": "wild-type KATNAL1/B1-con80 complex (full length human KATNAL1 with the con80 domain, residues 411-655, of human KATNB1) (complex)", "chain 1": "MNLAEICDNAKKGREYALLGNYDSSMVYYQGVMQQIQRHCQSVRDPAIKGKWQQVRQELLEEYEQVKSIVSTLESFKIDKPPDFPVSCQDEPFRDPAVWPPPVPAEHRAPPQIRRPNREVRPLRKEMAGVGARGPVGRAHPISKSEKPSTSRDKDYRARGRDDKGRKNMQDGASDGEMPKFDGAGYDKDLVEALERDIVSRNPSIHWDDIADLEEAKKLLREAVVLPMWMPDFFKGIRRPWKGVLMVGPPGTGKTMLAKAVATECGTTFFNVSSSTLTSKYRGESEKLVRLLFEMARFYAPTTIFIDEIDSICSRRGTSDEHEASRRVKSELLIQMDGVGGALENDDPSKMVMVLAATNFPWDIDEALRRRLEKRIYIPLPTAKGRAELLKINLREVELDPDIQLEDIAEKIEGYSGADITNVCRDASLMAMRRRINGLSPEEIRALSKEELQMPVTKGDFELALKKIAKSVSAADLEKYEKWMVEFGSA", "chain 2": "AATAKEAAKPSPAMDVQFPVPNLEVLPRPPVVASTPAPKAEPAIIPATRNEPIGLKASDFLPAVKIPQQAELVDEDAMSQIRKGHDTMCVVLTSRHKNLDTVRAVWTMGDIKTSVDSAVAINDLSVVVDLLNIVNQKASLWKLDLCTTVLPQIEKLLQSKYESYVQTGCTSLKLILQRFLPLITDMLAAPPSVGVDISREERLHKCRLCYKQLKSISGLVKSKSGLSGRHGSTFRELHLLMASLD"}, "B2": {"name": "con80 domain (residues 411-655) of human KATNB1 (domain or fragment, UniProt Q9BVA0 411-655, looked up)", "chain": "B1 chain 2"}, "B3": {"name": "full-length C. elegans MEI-2 (natural protein, UniProt O44740 1-280, looked up)", "chain": "MSGLDDRKKLTHAKNRKPLNDIPKSAENRPNTRSTSSRRGAEKDVPITFIGSSRTVKADLPEFTNTRSRRPLHSESKKELSRNPVSRGEEHSSSLPKSSPESSVSVMSSNASLWSACTEEVNKIGVCAKRESRNLRVYKMKSFTSNMEQILSNDNQLAPTVIRILNSRNSWCLNSCHACLTFIMENITSDNYGKRSACLKALASITNSLLDTIIGFASTKTRRIGVDVVAEERAAKATECIHNFRKIVKNRDKIYKQIDQETIYKLDAILERLKKVSSHK"}, "B4": {"name": "full length human KATNAL1 (E308Q) (enzyme, UniProt Q9BW62 1-490, looked up)", "chain": "B1 chain 1 with E308Q"}, "B5": {"name": "KATNAL1 (E308Q)/B1-con80 complex (complex, human)", "chain 1": "B1 chain 1 with E308Q", "chain 2": "B1 chain 2"}, "B6": {"name": "C. elegans MEI-1/MEI-2 complex (full-length MEI-1 with full-length MEI-2) (complex)", "chain 1": "MNGDVQSVIRGYLERAQVAKTMSDAGRWNEAGDLLRQLMTDVKSCKISASNRDEHDARNTFLRALEANLKLVQQNVRDEDDLHEAMTRQSGSPEPPADPDVWSKPSPPLPSSSKFGATKKGVGAAGPRPREISKSTSSMSTNPADVKPANPTQGILPQNSAGDSFDASAYDAYIVQAVRGTMATNTENTMSLDDIIGMHDVKQVLHEAVTLPLLVPEFFQGLRSPWKAMVLAGPPGTGKTLIARAIASESSSTFFTVSSTDLSSKWRGDSEKIVRLLFELARFYAPSIIFIDEIDTLGGQRGNSGEHEASRRVKSEFLVQMDGSQNKFDSRRVFVLAATNIPWELDEALRRRFEKRIFIPLPDIDARKKLIEKSMEGTPKSDEINYDDLAARTEGFSGADVVSLCRTAAINVLRRYDTKSLRGGELTAAMESLKAELVRNIDFEAALQAVSPSAGPDTMLKCKEWCDSFGAM", "chain 2": "B3 chain"}},
  "experiment_in_all_cases": "SEC-MALS",
  "key": {"SEC-MALS [1]": {"target": "the molecule itself"}, "[2]": {"target": "B4"}, "[3]": {"target": "full length human KATNAL1 (human, UniProt Q9BW62 1-490)"}, "[4]": {"target": "T1, full-length C. elegans MEI-1 (C. elegans, UniProt P34808 1-472)", "T1 sequence (looked up)": "B6 chain 1"}, "SEC-MALS [5]": {"target": "the molecule itself", "remark": "listed apart in the source"}},
  "note": "Positions count from the first letter of the chain named. Numbers in names are those of the source. Read-outs that look alike come from different tables or passages of the source.",
  "data": [
    {"binder": "B1", "values": [
      {"measurement": "stoichiometry N", "setting": "SEC-MALS [1]", "result": 2}
    ]},
    {"binder": "B2", "values": [
      {"measurement": "binding result", "setting": "[2]", "result": "binds"},
      {"measurement": "binding result", "setting": "[3]", "result": "binds"}
    ]},
    {"binder": "B3", "values": [
      {"measurement": "binding result", "setting": "[4]", "result": "binds"}
    ]},
    {"binder": "B4", "values": [
      {"measurement": "stoichiometry N", "setting": "SEC-MALS [1]", "result": 6}
    ]},
    {"binder": "B5", "values": [
      {"measurement": "stoichiometry N", "setting": "SEC-MALS [5]", "result": 2},
      {"measurement": "stoichiometry N", "setting": "SEC-MALS [1]", "result": 6}
    ]},
    {"binder": "B6", "values": [
      {"measurement": "stoichiometry N", "setting": "SEC-MALS [5]", "result": 2}
    ]}
  ]
}
